Experimental data published in publication PMC13483453, “Ewing sarcoma breakpoint region 1 (EWSR1) protein binds to nonstructural protein 2 and non-coding regions of chikungunya virus genome to inhibit virus replication”.

Experiments:
[1] = target: Recombinant histidine-tagged EWSR1 (Ewing sarcoma breakpoint region 1 protein) (UniProt Q01844); test: BLI
CHIKV nsP2 [2] = target: T1, CHIKV nsP2 (Chikungunya virus, UniProt Q8JUX6 536-1333); test: BLI; 2:1 binding model; conditions: protein: recombinant; tags: His6-SUMO removed
EWSR1 [3] = target: T2, EWSR1 (UniProt Q01844 1-656); test: BLI; 2:1 binding model; conditions: protein: recombinant; tags: N-terminal 6xHis (pET28a)
CHIKV nsP2 [4] = target: T1, CHIKV nsP2; test: EMSA; polyIC; figure description says weak; conditions: protein: recombinant; tags: His6-SUMO removed
CHIKV nsP2 [5] = target: T1, CHIKV nsP2; test: EMSA; conditions: protein: recombinant; tags: His6-SUMO removed
EWSR1 [6] = target: T2, EWSR1; test: EMSA; conditions: protein: recombinant; tags: N-terminal 6xHis (pET28a)
CHIKV nsP2 [7] = target: T1, CHIKV nsP2; test: EMSA; polyIC; conditions: protein: recombinant; tags: His6-SUMO removed
EWSR1 [8] = target: T2, EWSR1; test: EMSA; polyIC; conditions: protein: recombinant; tags: N-terminal 6xHis (pET28a)

T2 sequence (Q01844 whole entry): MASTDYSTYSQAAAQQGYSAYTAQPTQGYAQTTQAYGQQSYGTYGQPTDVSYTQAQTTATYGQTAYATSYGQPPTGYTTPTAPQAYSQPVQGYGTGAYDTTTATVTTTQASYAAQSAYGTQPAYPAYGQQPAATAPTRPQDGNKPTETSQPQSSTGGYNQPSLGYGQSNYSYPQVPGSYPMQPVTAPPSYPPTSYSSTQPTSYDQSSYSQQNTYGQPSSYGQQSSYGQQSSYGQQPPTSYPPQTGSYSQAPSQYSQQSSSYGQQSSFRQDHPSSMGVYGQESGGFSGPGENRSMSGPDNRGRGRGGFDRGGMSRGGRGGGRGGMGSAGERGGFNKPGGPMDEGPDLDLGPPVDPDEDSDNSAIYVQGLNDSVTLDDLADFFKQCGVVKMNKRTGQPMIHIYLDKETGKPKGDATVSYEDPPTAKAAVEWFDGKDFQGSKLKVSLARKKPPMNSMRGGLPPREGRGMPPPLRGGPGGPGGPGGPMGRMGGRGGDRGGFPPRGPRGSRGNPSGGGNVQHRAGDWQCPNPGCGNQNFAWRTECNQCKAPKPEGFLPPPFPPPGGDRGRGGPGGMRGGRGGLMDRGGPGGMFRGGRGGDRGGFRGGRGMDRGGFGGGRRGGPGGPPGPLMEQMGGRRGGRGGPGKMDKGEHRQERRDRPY
Chain of Recombinant histidine-tagged EWSR1 (Ewing sarcoma breakpoint region 1 protein) (Q01844 whole entry): as above

Molecule: Full-length CHIKV nsP2 protein (recombinant) (from UniProt Q8JUX6 536-1333) (enzyme)
- Kd [1]: 716 nM

Molecule: UCCGAACCCACAGGGACGUAGGAGAUGUUAUUUUGUUUUUAAUAUUUC (ssRNA) [3NCR48]
- Kd (CHIKV nsP2 [2]): 92.9 ± 1.6 nM
- Kd (EWSR1 [3]): 91.4 ± 0.37 nM

Molecule: UCUCUUGCUUUGCAGAGUAGAGCAGUAAGAAACUGGUAGGCUACGUGUGU (ssRNA) [5NCR-RC50]
- binding result (CHIKV nsP2 [4]): binds
- Kd (EWSR1 [3]): 80.2 ± 0.39 nM

Molecule: GUGAUUCAGAGGUUUUUGACUUUAGUAAAUCGCCCAUCCUUUGAUAGA (ssRNA) [Random48]
- binding result (CHIKV nsP2 [5]): binds
- binding result (EWSR1 [6]): no binding

Molecule: GUUUUUAAUAUUUC (ssRNA) [14-mer of 3NCR48]
- binding result (CHIKV nsP2 [7]): binds
- binding result (EWSR1 [8]): binds
